Results published in US20070292909.

Experiments:
[1] = target: keima 616-(spacer) DEVD-ECFP
MiCy-DEVD-mKO = target: T1, MiCy-DEVD-mKO
T1 chain: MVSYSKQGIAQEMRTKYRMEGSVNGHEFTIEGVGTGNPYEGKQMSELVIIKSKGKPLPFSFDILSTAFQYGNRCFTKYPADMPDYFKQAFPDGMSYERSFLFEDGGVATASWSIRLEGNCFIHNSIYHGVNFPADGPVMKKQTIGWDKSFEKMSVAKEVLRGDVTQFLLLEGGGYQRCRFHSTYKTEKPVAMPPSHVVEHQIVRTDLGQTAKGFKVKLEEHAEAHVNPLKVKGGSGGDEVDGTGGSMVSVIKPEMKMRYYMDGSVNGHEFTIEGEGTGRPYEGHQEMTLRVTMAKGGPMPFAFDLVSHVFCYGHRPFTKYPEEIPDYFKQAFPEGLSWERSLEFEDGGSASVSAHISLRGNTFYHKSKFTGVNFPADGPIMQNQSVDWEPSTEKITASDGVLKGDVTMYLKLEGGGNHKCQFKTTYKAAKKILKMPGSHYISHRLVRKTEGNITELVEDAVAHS

[2] = target: ECFP-(spacer) DEVD-keima 616

B1: Caspase-3 (protein)
chain: SGISLDNSYKMDYPEMGLCIIINNKNFHKSTGMTSRSGTDVDAANLRETFRNLKYEVRNKNDLTREEIVELMRDVSKEDHSKRSSFVCVLLSHGEEGIIFGTNGPVDLKKITNFFRGDRCRSLTGKPKLFIIQACRGTELDCGIETDSGVDDDMACHKIPVEADFLYAYSTAPGYYSWRNSKDGSWFIQSLCAMLKQYADKLEFMHILTRVNRKVATEFESFSFDATFHAKKQIPCIVSMLTKELYFYH
- amplitude of the fluorescence cross-correlation function, Gcross(0) (EGFP-DEVD-mRFP1 (x2)): A decrease in Gcross(0) was observed as a result of addition of Caspase-3
- SDS-PAGE and Native-PAGE bands after the reaction with Caspase-3 [1]: When keima 616-DEVD-ECFP was reacted with Caspase-3, the bands with the sizes of keima 616 and ECFP could be confirmed
- amplitude of the fluorescence cross-correlation function, Gcross(0) [1]: A rapid decrease in Gcross(0) was observed as a result of addition of Caspase-3
- fluorescence spectrum (FRET, excitation at 440 nm) before and after the reaction with Caspase-3 (MiCy-DEVD-mKO): after the addition thereof, FRET disappeared due to the cleavage of the linker and the fluorescence peak (559 nm) of mKO thereby disappeared, so that only the fluorescence peak (495 nm) of MiCy remained
- amplitude of the fluorescence cross-correlation function, Gcross(0) [2]: A rapid decrease in Gcross(0) was observed as a result of addition of Caspase-3
